The target of assay [1] is human Fc tagged human Lag3 extra cellular domain (human) (UniProt P18627). Put plainly: FACS, inhibition of biotinylated Lag3:Fc binding to MHC-II on A375 cells (competitor MHC-II); control at 10 µg/ml.
The target in assay [2] is cynomolgus LAG3 on cells (cynomolgus). Put plainly: flow cytometry on activated cynomolgus PBMC, 10 µg/ml; control (only 2nd Ab (hu): 7.62).

human Fc tagged human Lag3 extra cellular domain (human), sequence (P18627 29-450): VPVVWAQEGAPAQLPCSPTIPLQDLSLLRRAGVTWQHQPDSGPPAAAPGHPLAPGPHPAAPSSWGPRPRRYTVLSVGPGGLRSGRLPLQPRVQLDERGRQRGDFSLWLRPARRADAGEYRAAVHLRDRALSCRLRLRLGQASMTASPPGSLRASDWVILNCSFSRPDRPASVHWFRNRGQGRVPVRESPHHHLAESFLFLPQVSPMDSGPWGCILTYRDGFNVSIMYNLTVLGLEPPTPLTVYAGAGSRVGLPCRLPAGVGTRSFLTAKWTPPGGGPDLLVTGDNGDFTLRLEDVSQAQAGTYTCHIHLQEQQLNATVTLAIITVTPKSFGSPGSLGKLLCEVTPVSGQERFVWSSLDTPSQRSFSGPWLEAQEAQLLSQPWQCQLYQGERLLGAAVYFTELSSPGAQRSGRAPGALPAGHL

As to “human IgG1 isotype control (Sigma, cat.no. #I5154) (antibody)”, the % Inhibition in assay [1] was -2.9%. For the substance DP47 (human isotype) (antibody), in assay [2], the % positive cyno cells (PBLs) after CD3/CD28 activation came to 9.19%.

The values above are taken from patent publication US20220387586A1.
